Legend:
Assay in all cases: cell-based or functional assay
[1] = biological target: HIV-1 Env of isolate MGRM-Chronic-B-012 (subtype B pseudovirus) (HIV-1)
[2] = biological target: HIV-1 Env of isolate 93TH305 (subtype B pseudovirus) (HIV-1)
[3] = biological target: HIV-1 Env of isolate MGRM-F1-017 (HIV-1)
[4] = biological target: HIV-1 MGRM-C-028 Env (pseudovirus, clade C) (HIV-1)
[5] = biological target: HIV-1 Env of isolate MGRM-Chronic-B-008 (subtype B pseudovirus) (HIV-1)
[6] = biological target: HIV-1 Env of isolate MGRM-F1-020 (HIV-1)
[7] = biological target: HIV-1 APV17 Env (pseudovirus, clade B) (HIV-1)
[8] = biological target: HIV-1 Env of isolate MGRM-D-003 (pseudovirus) (HIV-1)
[9] = biological target: HIV-1 94UG103 Env (pseudovirus, clade A) (HIV-1)
[10] = biological target: HIV-1 APV13 Env (pseudovirus) (HIV-1)
[11] = biological target: HIV-1 Env of isolate MGRM-D-022 (pseudovirus) (HIV-1)
[12] = biological target: HIV-1 Env of isolate MGRM-Chronic-B-018 (subtype B pseudovirus) (HIV-1)
[13] = biological target: HIV-1 Env of pseudovirus isolate MGRM-G-024 (HIV-1)
[14] = biological target: HIV-1 Env of isolate MGRM-AG-009 (HIV-1)
[15] = biological target: HIV-1 Env of isolate MGRM-AG-002 (HIV-1)
[16] = biological target: HIV-1 MGRM-AG-005 Env (pseudovirus) (HIV-1)
[17] = biological target: HIV-1 93UG077 Env (pseudovirus) (HIV-1)
[18] = biological target: HIV-1 Env of isolate MGRM-D-002 (clade D pseudovirus) (HIV-1)
[19] = biological target: HIV-1 Env of pseudovirus MGRM-F1-004 (HIV-1)
[20] = biological target: HIV-1 Env of pseudovirus MGRM-Chronic-B-018 (HIV-1)
[21] = biological target: HIV-1 APV-6 envelope glycoprotein (Env) on pseudovirus (HIV-1)
[22] = biological target: HIV-1 envelope glycoprotein (Env) of isolate MGRM-A-011, clade A (HIV-1)
[23] = biological target: HIV-1 Env of pseudovirus MGRM-AG-005 (clade CRF_AG) (HIV-1)
[24] = biological target: HIV-1 Env of pseudovirus MGRM-Chronic-B-023 (HIV-1)
[25] = biological target: HIV-1 Env of isolate TRO.11 (Acute), clade B, on pseudovirus (HIV-1)
[26] = biological target: HIV-1 Env of pseudovirus MGRM-G-006 (clade G) (HIV-1)
[27] = biological target: HIV-1 Env of pseudovirus MGRM-G-013 (HIV-1, clade G isolate MGRM-G-013)
[28] = biological target: HIV-1 envelope glycoprotein (Env) of isolate 94KE105, listed under clade A (HIV-1)
[29] = biological target: HIV-1 Env of pseudovirus MGRM-F1-021 (HIV-1)
[30] = biological target: HIV-1 envelope glycoprotein (Env) of isolate 92UG037, clade A (HIV-1)
[31] = biological target: HIV-1 envelope glycoprotein (Env) of isolate MGRM-A-007, clade A (HIV-1)

Chain of 1443_C16 (PG16) (TCN-116) (antibody) (VH): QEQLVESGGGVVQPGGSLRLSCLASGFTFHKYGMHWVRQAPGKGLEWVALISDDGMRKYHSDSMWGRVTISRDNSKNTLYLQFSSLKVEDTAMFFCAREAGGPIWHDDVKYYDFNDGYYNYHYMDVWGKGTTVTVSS
Chain of 1443_C16 (PG16) (TCN-116) (antibody) (VL): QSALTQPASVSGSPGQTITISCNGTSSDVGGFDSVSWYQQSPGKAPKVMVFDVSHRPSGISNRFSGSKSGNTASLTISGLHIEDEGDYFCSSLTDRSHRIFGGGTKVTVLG

4858_P08 (PGT-123) (antibody)
IC50 (µg/mL), pseudovirus neutralization [1]: 0.227 µg/mL
IC50 (µg/mL), pseudovirus neutralization [2]: 0.008 µg/mL
IC50 (µg/mL), pseudovirus neutralization [3]: > 50 µg/mL
IC50 neutralization [4]: 0.443 µg/mL
IC50 (µg/mL), pseudovirus neutralization [5]: 0.01 µg/mL
IC50 (µg/mL), pseudovirus neutralization [6]: 0.051 µg/mL
IC50 neutralization [7]: 0.18 µg/mL
IC50, pseudovirus neutralization [8]: 3.74 µg/mL
IC50 neutralization [9]: 0.846 µg/mL
neutralization IC50 (pseudovirus) [10]: 0.222 µg/mL
IC50, pseudovirus neutralization [11]: > 50 µg/mL
IC50 (µg/mL), pseudovirus neutralization [12]: > 50 µg/mL
IC50 (µg/mL), pseudovirus neutralization [13]: 0.032 µg/mL
IC50 [14]: 0.073 µg/mL
IC50 [15]: > 50 µg/mL
neutralization IC50 (pseudovirus) [16]: 0.104 µg/mL
neutralization IC50 (pseudovirus) [17]: 0.0303 µg/mL

2G12 (antibody)
IC50 (µg/ml), pseudovirus neutralization [18]: > 50 µg/mL
IC50 (µg/ml), pseudovirus neutralization [19]: > 50 µg/mL
IC50 (µg/ml), pseudovirus neutralization [20]: > 50 µg/mL
IC50, pseudovirus neutralization [21]: 5.3 µg/mL
IC50 (µg/ml), pseudovirus neutralization [22]: > 50 µg/mL
IC50 [23]: > 50 µg/mL
IC50 (µg/ml), pseudovirus neutralization [24]: 0.16 µg/mL
IC50 (µg/ml), pseudovirus neutralization [25]: 0.29 µg/mL
IC50 [26]: > 50 µg/mL
IC50 (µg/ml), pseudovirus neutralization [27]: > 50 µg/mL
IC50 (µg/ml), pseudovirus neutralization [28]: 7.22 µg/mL
IC50 (µg/ml), pseudovirus neutralization [29]: 14.1 µg/mL
IC50 (µg/ml), pseudovirus neutralization [30]: 45.2 µg/mL
IC50 (µg/ml), pseudovirus neutralization [31]: > 50 µg/mL

5141_B17 (PGT-126) (antibody)
IC50 (µg/mL), pseudovirus neutralization [1]: 0.027 µg/mL
IC50 (µg/mL), pseudovirus neutralization [2]: 0.013 µg/mL
IC50 (µg/mL), pseudovirus neutralization [3]: > 50 µg/mL
IC50 neutralization [4]: 0.283 µg/mL
IC50 (µg/mL), pseudovirus neutralization [5]: 5.89 µg/mL
IC50 (µg/mL), pseudovirus neutralization [6]: > 50 µg/mL
IC50 neutralization [7]: 0.501 µg/mL
IC50, pseudovirus neutralization [8]: 0.021 µg/mL
IC50 neutralization [9]: 0.0091 µg/mL
neutralization IC50 (pseudovirus) [10]: 0.012 µg/mL
IC50, pseudovirus neutralization [11]: > 50 µg/mL
IC50 (µg/mL), pseudovirus neutralization [12]: 0.052 µg/mL
IC50 (µg/mL), pseudovirus neutralization [13]: > 50 µg/mL
IC50 [14]: 0.03 µg/mL
IC50 [15]: > 50 µg/mL
neutralization IC50 (pseudovirus) [16]: 1.35 µg/mL
neutralization IC50 (pseudovirus) [17]: 0.0256 µg/mL

1443_C16 (PG16) (TCN-116) (antibody)
IC50 (µg/ml), pseudovirus neutralization [18]: 0.01 µg/mL
IC50 (µg/ml), pseudovirus neutralization [19]: 0.43 µg/mL
IC50 (µg/ml), pseudovirus neutralization [20]: 0.7 µg/mL
IC50, pseudovirus neutralization [21]: 0.08 µg/mL
IC50 (µg/ml), pseudovirus neutralization [22]: 0.24 µg/mL
IC50 [23]: > 50 µg/mL
IC50 (µg/ml), pseudovirus neutralization [24]: 0.13 µg/mL
IC50 (µg/ml), pseudovirus neutralization [25]: 0.22 µg/mL
IC50 [26]: 2.42 µg/mL
IC50 (µg/ml), pseudovirus neutralization [27]: > 50 µg/mL
IC50 (µg/ml), pseudovirus neutralization [28]: 6.13 µg/mL
IC50 (µg/ml), pseudovirus neutralization [29]: > 50 µg/mL
IC50 (µg/ml), pseudovirus neutralization [30]: 0.01 µg/mL
IC50 (µg/ml), pseudovirus neutralization [31]: 5.91 µg/mL

5123_A06 (PGT-125) (antibody)
IC50 (µg/mL), pseudovirus neutralization [1]: 0.036 µg/mL
IC50 (µg/mL), pseudovirus neutralization [2]: 0.008 µg/mL
IC50 (µg/mL), pseudovirus neutralization [3]: > 50 µg/mL
IC50 neutralization [4]: 5.78 µg/mL
IC50 (µg/mL), pseudovirus neutralization [5]: > 50 µg/mL
IC50 (µg/mL), pseudovirus neutralization [6]: > 50 µg/mL
IC50 neutralization [7]: 7.31 µg/mL
IC50, pseudovirus neutralization [8]: 0.065 µg/mL
IC50 neutralization [9]: 0.0124 µg/mL
neutralization IC50 (pseudovirus) [10]: 0.0128 µg/mL
IC50, pseudovirus neutralization [11]: 0.04 µg/mL
IC50 (µg/mL), pseudovirus neutralization [12]: > 50 µg/mL
IC50 (µg/mL), pseudovirus neutralization [13]: > 50 µg/mL
IC50 [14]: 0.026 µg/mL
IC50 [15]: > 50 µg/mL
neutralization IC50 (pseudovirus) [16]: > 10 µg/mL
neutralization IC50 (pseudovirus) [17]: 0.0262 µg/mL
